Where “and” joins values, the source holds several entries; their conditions need not be identical. Equal entries are not always repeated.
Key:
transplanted hepatoma 22 = experiment: Transplanted hepatoma 22 growth in mice; conditions: for Inhibition rate / Tumor volume x ± s: tail vein, day 14
Experimental: Kunming mice, weighing between 18-22 g, were randomly separated into different groups of 10 mice each. On day 0, hepatoma 22 cells (1.5×10^6 cells/0.2 ml/mouse) diluted with saline were transplanted subcutaneously into the right axilla of mice. On day 1 (after 24 h), the therapy was started and VH-LDP-AE at different doses, LDM at 0.05 mg/kg, mitomycin (MMC) at 1 mg/kg were administered respectively to the tumor bearing mice (0.2 ml/mouse) by injection into the tail vein. Mice of control group were injected with saline. Diameters of the tumors were measured every 3 days during the experiment. Weights of the mice were recorded. The tumor volumes were calculated with the following formula: V=0.5ab^2, where a and b is the long and the perpendicular short diameters of the tumor, respectively. The curves of tumor growth were plotted and the inhibition rates were calculated.

cecum carcinoma Hce-8693 = conditions: nude mice; cited from earlier work
colon carcinoma 26 = conditions: cited from earlier work
HT-1080 cells = experiment: MTT cytotoxicity assay, HT-1080; format: cell-based; conditions: 72 h
Experimental: (§1) MTT assay was used. After digestion and counting, cells in exponential growth phase were seeded at 3000 cells/well in 96-well plates, and cultured at 37° C. in 5% CO2 for 24 hours. Drugs of various concentrations were added with 3 aliquots, and the cells were cultured for another 72 h. 50 μl of MTT (2 mg/ml) in serum-free RPMI 1640 were added into each well, and the cells were cultured at 37° C. for 4 h. Remove the culture medium gently; add 150 μl DMSO each well; incubate at room temperature for 15 min on a shaker; measure the absorbance at 560 nm on a microplate reader. Survival ratio and IC50 values were calculated according to the following equation: Survival ratio=(Atest−Ablank)/(Acontrol−Ablank)×100%.

PG cells = experiment: MTT cytotoxicity assay, PG; format: cell-based; conditions: 72 h
Experimental: as §1

hepatoma Bel-7402 = conditions: nude mice; cited from earlier work
KB cells = experiment: MTT cytotoxicity assay, KB; format: cell-based, human; conditions: 72 h
Experimental: as §1

type IV collagenase = experiment: ELISA immunoreactivity with type IV collagenase; format: binding; conditions: FIG. 4
Experimental: (§2) Immunoreactivity of fusion protein VH-LDP was detected by ELISA. At first, type IV collagenase or tumor cells was coated or fixed to 96-well ELISA plates: well was coated with 100 μl of type IV collagenase (10 μg/ml, diluted by PBS) and the plates were stored at 4° C. overnight; Human hepatoma SMMC-7721 cells or human KB cells were seeded at 10^4/well in 96-well plates and cultured for 24 h, washed with PBS for 3 times, added 0.05% cold (4° C.) Glutaraldehyde and fixed for 15 min. Then the coated or fixed plates were washed with PBS 3 times, and blocked with 200 μl/well of 1% bovine serum albumin (BSA)/PBS at 4° C. overnight. The plates were washed 3 times with PBS. Then 200 μl of serial concentrations of fusion protein VH-LDP were added into each well of the plates and incubated for 2 hours at 37° C. Washing the plates 3 times with 0.05% Tween 20/PBS (PBST), adding 50 μl of anti-His6-Tag monoclonal antibody diluted 1:1500 to each well, and incubating at 37° C. for 1 h. Washing the plates 3 times with PBST, adding 50 μl of HRP conjugated goat anti-mouse IgG (at 1:2000 dilution), and incubating at 37° C. for 1 hour. Washing the plates with PBST 6 times, adding 100 μl of OPD substrate reaction solution to each well, incubating the plates at room temperature for 10 min in the dark. […] Then the optical density (OD) of each well was measured at 490 nm using a microplate reader.

[1] = system: type IV collagenase secreted by HT-1080 cells; experiment: Gelatin zymography in HT-1080 cells; format: cell-based; conditions: 24 h, 25, 50, 100 μM (FIG. 8), dependent on concentration
Experimental: Gelatin zymography protocol was used. Exponentially growing HT-1080 cells were seeded at 10^5/well in 24-well plates and incubated at 37° C. in 5% CO2. After 24 h, the culture medium was removed and 1 ml serum-free RPMI 1640 medium was added for washing twice. Add 120 μl of serum-free RPMI 1640 medium and 30 μl of fusion protein VH-LDP as prepared in example 3 to each well, and add 30 μl PBS to control well. Culturing the cells at 37° C. for 24 h. Harvest the culture medium, and centrifuging at 500 g for 5 min. Then take the supernatant for non-denaturalization electrophoresis on SDS-PAGE. Wash the gels with distilled water 3 times. Put the gels into 100 ml of 2.5% TritonX-100, shake on a shaker for 30 min at low speed. Then Wash the gels 2 times with distilled water; repeat the washing process with TritonX-100 above. The gels was washed with distilled water 2 times, and incubated at 37° C. for 16-18 h in 100 ml of gelatinase buffer (50 mM Tris-HCl, pH 7.5, 200 mM NaCl, 10 mM CaCl2, 1 μM ZnCl2). The gels were stained with Coomassie-brilliant blue R-250 and destained with acetic acid: methanol:water (10:45:45). The negative stained bands were observed.

[2] = State of refolded fusion protein in PBS solution; format: physicochemical
Experimental: The inventors attempted to make fusion gene in the form of VH-LDP by fusing VH domain against type IV collagenase to apoprotein LDP of LDM, and then expressing the fusion protein in E. coli.
The fusion protein VH-LDP after purification was refolded: the purified protein was diluted to a final concentration of 15 μM with eluting buffer mentioned above, and β-mercaptoethanol was added to a final concentration of 10 mM. After being stored at room temperature for 30 min, the sample was placed in a dialysis bag and dialyzed against at least 50 vol. of refolding buffer 1 (50 mM Tris-HCl pH 8.0, 1 mM EDTA, 200 mM NaCl, 6 M urea). And the following dialysis was against the same buffer with step-wise reduction in the urea concentration (3M, 2M, 1M, 0.5M, and 0M). On a 1-M stage, 750 μM of glutathione (GSSG) and 400 mM of L-Arginine were added to the dialysis buffer. Then the sample was dialyzed against 50 vol. of PBS solution (pH 7.4). Each dialysis was performed for 12 h and with buffer changed twice. All dialysis was performed at 4° C. After dialysis, the sample was centrifuged at 10,000 g for 30 min at 4° C. and the supernatant was collected. After being condensed, the active fusion protein VH-LDP was obtained and stored at −20° C. for later use.

[3] = system: solid tumor of mouse hepatoma 22; experiment: Immunohistochemical (SABC) staining of mouse hepatoma sections; format: binding; conditions: FIG. 7
Experimental: (§3) Immunohistochemical (IHC) staining was performed by streptavidin-biotin-peroxidase complex (SABC) staining with SABC kit (Boster Company). The sections were blocked by normal goat serum for 20 min at room temperature and the excessive liquid was removed. The sections without washing were added with diluted said VH-LDP fusion protein as prepared in example 3 and incubated at room temperature; then diluted anti-His6-tag antibody and biotinylated goat-anti-mouse IgG were added in turn. Finally SABC reagent was added. DAB kit was used as a chromogen for visualized reaction at room temperature. The sections were counter-stained by hematoxylin, dehydrated, cleared, sealed, and observed with microscope.

[4] = system: human hepatoma SMMC-7721 cells; experiment: ELISA immunoreactivity with fixed SMMC-7721 cells; format: binding; conditions: FIG. 5
Experimental: as §2

[5] = system: mouse normal liver sections; experiment: Immunohistochemical (SABC) staining of mouse normal liver sections; format: binding; conditions: FIG. 7
Experimental: as §3

[6] = system: human colon carcinoma HT-29 cells; experiment: MTT combination assay on HT-29 cells (CDI); format: cell-based; conditions: HT-29, MTT
Experimental: MTT assay was used. After trypsin-EDTA digestion, the human colon carcinoma HT-29 cells in exponential growth were seeded at 4000 cells/well in 96-well plates, and cultured for 24 hours. Then add 20 μl of different concentrations of hydroxylcamptothecin or 5-fluorouracil; 8 hours later, add different concentrations of VH-LDP-AE. Continue to culture the cells at 37° C. in 5% CO2 for 72 h. Add 50 μl of MTT at concentration of 2 mg/ml, culture the cells at 37° C. for 4 hours. Then remove the supernatant; add 150 μl DMSO each well; ten minutes later, measure the absorbance at 560 nm on a microplate reader. In cancer pharmacology, interactions of drug combination were evaluated by coefficient of drug interaction (CDI). There existed synergistic effects with CDI<1, and there existed very significant ones with CDI<0.7. […] It was usual that monoclonal antibodies were combined with anti-cancer drugs.

[7] = system: bFGF-stimulated angiogenesis; experiment: Chick embryo allantoic membrane (CAM) anti-angiogenesis assay; format: in vivo; conditions: 72 h, 0.5 μg/egg (FIG. 10)
Experimental: Anti-angiogenic activity of VH-LDP-AE was examined in chick embryoallantoic membrane assay (CAM). The surface of 7-day-old post-fertilization chick eggs (White Leghorn) in a 60% humidified incubator at 37° C. was sterilized and the CAM was […]) exposed by cutting a window (2 cm^2) on the egg shell using the false air-sac technique. After 24 h, 10 μl of bFGF was dipply added to agarose disks with the energized fusion protein VH-LDP-AE at various concentrations which was prepared as mentioned in Example 7, and then the disks were placed on top of the CAM. After the windows were sealed with transparent tape, the eggs were incubated for further 72 h.

**Q.** For `CO[C@@]12[C@H](COC(N)=O)C3=C(C(=O)C(C)=C(N)C3=O)N1C[C@@H]1N[C@@H]12` [MMC, mitomycin], which Body weight begin (transplanted hepatoma 22; 1 mg/kg, begin) is on record?
**A.** 18.82 g

**Q.** And the Body weight end (transplanted hepatoma 22; 1 mg/kg, end (day 14))?
**A.** 29.29 g

**Q.** What about the Inhibition rate (transplanted hepatoma 22; 1 mg/kg) of the same molecule?
**A.** 51.5^Δ %

**Q.** What about the “Tumor volume x ± s” value (transplanted hepatoma 22; 1 mg/kg) of the same molecule?
**A.** 2.23 ± 2.15 cm^3

**Q.** What about the Inhibition rate (transplanted hepatoma 22; 1 mg/kg, listed as mitomycin) of the same molecule?
**A.** 51.5%

**Q.** What does the source list for lidamycin [LDM]?
**A.** growth of human cancer xenograft cecum carcinoma Hce-8693 (cecum carcinoma Hce-8693): potent inhibitory effect; growth of colon carcinoma 26 in mice (colon carcinoma 26): remarkably inhibited; IC50 (HT-1080 cells): 2.21 pM; IC50 (PG cells): 6.3 pM; growth of human cancer xenograft hepatoma Bel-7402 (hepatoma Bel-7402): potent inhibitory effect; Inhibition rate (transplanted hepatoma 22; 0.05 mg/kg): 79.6% and 79.6^ΔΔ %; Tumor volume x ± s (transplanted hepatoma 22; 0.05 mg/kg): 0.94 ± 0.53 cm^3; maximal tolerated dose (transplanted hepatoma 22; mice): 0.05 mg/kg; IC50 (KB cells): 1.08 pM

B1: VH-LDP: VH domain of anti-type IV collagenase mAb 3G11, GGGGS spacer, lidamycin apoprotein LDP and His6-Tag; SEQ ID NO: 2 (protein)
chain: MQVKLQQSGTEVVKPGASVKLSCKASGYIFTSYDIDWVRQTPEQGLEWIGWIFPGEGSTEYNEKFKGRATLSVDKSSSTAYMELTRLTSEDSAVYFCARGDYYRRYFDLWGQGTTVTVSSGGGGSAPAFSVSPASGLSDGQSVSVSVSGAAAGETYYIAQCAPVGGQDACNPATATSFTTDASGAASFSFVVRKSYTGSTPEGTPVGSVDCATAACNLGAGNSGLDLGHVALTFGLEHHHHHH
modifications: fusion protein of Vh and LDP
**Q.** What does the source list for B1?
**A.** binding activity to type IV collagenase (type IV collagenase): positive; inhibition of type IV collagenase activity secreted by cancer cells [1]: inhibit significantly; solubility after refolding [2]: soluble in PBS solution; fraction existing in monomer state ([2]; after refolding): 75%; immunohistochemical staining in mouse hepatoma sections [3]: positively stained; binding activity to human hepatoma SMMC-7721 cells [4]: positive; immunohistochemical staining in mouse normal liver sections [5]: negatively stained

B2: VH-LDP-AE (conjugate)
chain: MQVKLQQSGTEVVKPGASVKLSCKASGYIFTSYDIDWVRQTPEQGLEWIGWIFPGEGSTEYNEKFKGRATLSVDKSSSTAYMELTRLTSEDSAVYFCARGDYYRRYFDLWGQGTTVTVSSGGGGSAPAFSVSPASGLSDGQSVSVSVSGAAAGETYYIAQCAPVGGQDACNPATATSFTTDASGAASFSFVVRKSYTGSTPEGTPVGSVDCATAACNLGAGNSGLDLGHVALTFGLEHHHHHH
modifications: AE chromophore assembled; fusion protein of Vh and LDP
**Q.** What does the source list for B2?
**A.** coefficient of drug interaction (CDI) ([6]; 10 μM of 5-fluorouracil plus 3 ng/ml of VH-LDP-AE): < 0.7; coefficient of drug interaction (CDI) ([6]; hydroxylcamptothecin (1 μM) plus VH-LDP-AE (3 ng/ml)): < 0.7; suppression of angiogenesis stimulated by bFGF [7]: significantly suppress angiogenesis; Inhibition rate (transplanted hepatoma 22; 0.125 mg/kg): 88.1% and 88.1*^ΔΔ %; Tumor volume x ± s (transplanted hepatoma 22; 0.125 mg/kg): 0.55 ± 0.24 cm^3; Inhibition rate (transplanted hepatoma 22; 0.25 mg/kg): 95.9% and 95.9**^ΔΔ %; Tumor volume x ± s (transplanted hepatoma 22; 0.25 mg/kg): 0.19 ± 0.21 cm^3; effect on growth of hepatoma 22 in mice (transplanted hepatoma 22; both 0.25 mg/kg and 0.125 mg/kg, more potent than free lidamycin 0.05 mg/kg (FIG. 11)): inhibited or retarded the growth; body weight loss and side-effects during the experiments (transplanted hepatoma 22; mouse, in vivo): No body weight loss and other severe side-effects were found

From patent publication US20080044412A1, “Single-Domain Antibody Strengthening Fusion Protein Vh-Ldp-Ae” (INSTITUTE OF MEDICINAL BIOTECHNOLOGY CHINESE ACADEMY OF …, priority 2004, published 2008)
